T1: GPBP (Homo sapiens, UniProt Q9Y5P4)
T1 construct: made in house; host or cells: Pichia pastoris GS115
T1 sequence (Q9Y5P4 1-624): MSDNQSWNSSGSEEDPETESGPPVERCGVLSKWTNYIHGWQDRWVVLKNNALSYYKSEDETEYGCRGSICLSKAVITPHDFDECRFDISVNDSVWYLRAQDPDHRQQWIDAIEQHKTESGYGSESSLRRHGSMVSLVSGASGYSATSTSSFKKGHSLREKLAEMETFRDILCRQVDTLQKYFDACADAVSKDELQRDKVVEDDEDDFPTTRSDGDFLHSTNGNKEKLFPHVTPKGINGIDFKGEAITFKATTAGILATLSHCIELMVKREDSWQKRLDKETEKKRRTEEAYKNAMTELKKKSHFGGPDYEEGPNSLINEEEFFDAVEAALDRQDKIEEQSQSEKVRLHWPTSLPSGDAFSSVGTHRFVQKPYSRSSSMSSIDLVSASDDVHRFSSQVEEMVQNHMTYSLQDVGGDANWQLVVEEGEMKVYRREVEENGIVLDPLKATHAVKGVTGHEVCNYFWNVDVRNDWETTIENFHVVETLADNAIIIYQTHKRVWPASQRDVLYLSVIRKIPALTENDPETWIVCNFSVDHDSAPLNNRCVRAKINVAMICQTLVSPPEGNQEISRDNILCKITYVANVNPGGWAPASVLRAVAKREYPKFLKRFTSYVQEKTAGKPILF

T2: GPpep1
T2 chain: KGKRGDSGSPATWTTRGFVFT

T3: prokaryotic human recombinant α3(IV)NC1
T3 chain: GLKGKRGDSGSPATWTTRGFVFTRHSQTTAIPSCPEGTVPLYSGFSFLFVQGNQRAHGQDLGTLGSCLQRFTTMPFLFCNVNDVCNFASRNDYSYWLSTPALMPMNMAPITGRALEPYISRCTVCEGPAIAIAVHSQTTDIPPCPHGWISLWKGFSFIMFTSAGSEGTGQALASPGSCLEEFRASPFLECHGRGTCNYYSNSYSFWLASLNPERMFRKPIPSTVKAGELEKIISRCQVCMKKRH

T4: native bovine α3(IV)NC1 domain (bovine GP antigen), Q28084
T4 chain: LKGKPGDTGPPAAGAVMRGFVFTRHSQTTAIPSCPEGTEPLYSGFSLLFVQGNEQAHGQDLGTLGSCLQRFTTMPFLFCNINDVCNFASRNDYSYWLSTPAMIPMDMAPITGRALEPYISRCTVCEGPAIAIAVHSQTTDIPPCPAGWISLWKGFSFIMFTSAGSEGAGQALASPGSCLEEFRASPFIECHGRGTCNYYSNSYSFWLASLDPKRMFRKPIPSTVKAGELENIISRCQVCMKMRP

B1: FLAG-tagged recombinant GPBP (rGPBP) (enzyme)
chain: DYKDDDDKMSDNQSWNSSGSEEDPETESGPPVERCGVLSKWTNYIHGWQDRWVVLKNNALSYYKSEDETEYGCRGSICLSKAVITPHDFDECRFDISVNDSVWYLRAQDPDHRQQWIDAIEQHKTESGYGSESSLRRHGSMVSLVSGASGYSATSTSSFKKGHSLREKLAEMETFRDILCRQVDTLQKYFDACADAVSKDELQRDKVVEDDEDDFPTTRSDGDFLHSTNGNKEKLFPHVTPKGINGIDFKGEAITFKATTAGILATLSHCIELMVKREDSWQKRLDKETEKKRRTEEAYKNAMTELKKKSHFGGPDYEEGPNSLINEEEFFDAVEAALDRQDKIEEQSQSEKVRLHWPTSLPSGDAFSSVGTHRFVQKPYSRSSSMSSIDLVSASDDVHRFSSQVEEMVQNHMTYSLQDVGGDANWQLVVEEGEMKVYRREVEENGIVLDPLKATHAVKGVTGHEVCNYFWNVDVRNDWETTIENFHVVETLADNAIIIYQTHKRVWPASQRDVLYLSVIRKIPALTENDPETWIVCNFSVDHDSAPLNNRCVRAKINVAMICQTLVSPPEGNQEISRDNILCKITYVANVNPGGWAPASVLRAVAKREYPKFLKRFTSYVQEKTAGKPILF
modifications: phosphoserine, phosphothreonine and phosphotyrosine present, sites not given
notes: Made in Pichia pastoris or 293 cells; also called FLAG-n4′
B2: FLAG-tagged recombinant GPBPΔ26 (rGPBPΔ26) (enzyme)
chain: DYKDDDDKMSDNQSWNSSGSEEDPETESGPPVERCGVLSKWTNYIHGWQDRWVVLKNNALSYYKSEDETEYGCRGSICLSKAVITPHDFDECRFDISVNDSVWYLRAQDPDHRQQWIDAIEQHKTESGYGSESSLRRHGSMVSLVSGASGYSATSTSSFKKGHSLREKLAEMETFRDILCRQVDTLQKYFDACADAVSKDELQRDKVVEDDEDDFPTTRSDGDFLHSTNGNKEKLFPHVTPKGINGIDFKGEAITFKATTAGILATLSHCIELMVKREDSWQKRLDKETEKKRRTEEAYKNAMTELKKKSHFGGPDYEEGPNSLINEEEFFDAVEAALDRQDKIEEQSQSEKVRLHWPTSLPSGDAFSSVGTHRFVQKVEEMVQNHMTYSLQDVGGDANWQLVVEEGEMKVYRREVEENGIVLDPLKATHAVKGVTGHEVCNYFWNVDVRNDWETTIENFHVVETLADNAIIIYQTHKRVWPASQRDVLYLSVIRKIPALTENDPETWIVCNFSVDHDSAPLNNRCVRAKINVAMICQTLVSPPEGNQEISRDNILCKITYVANVNPGGWAPASVLRAVAKREYPKFLKRFTSYVQEKTAGKPILF
notes: From plasmid pHIL-FLAG-n4′Δ26, expressed in Pichia pastoris

Columns and labels:
[1] = target: T5, PKA (Bos taurus, UniProt P00517); assay: PKA phosphorylation of native GP antigen (α3(IV)NC1 monomer or hexamer) in the presence of C-terminal peptides; format: biochemical; conditions: for induction of GP antigen phosphorylation by PKA (22 kDa conformer of α3(IV)NC1): 0.1 μM ATP, 10 nmol peptide
Method: FIG. 16. Phosphorylation of GP alternative splicing products by PKA. In left panel, equimolecular amounts of rGP (lanes 1), rGPΔV (lanes 2), rGPΔIII (lanes 3) or rGPΔIII/IV/V (lanes 4), equivalent to 500 ng of the GP were phosphorylated at the indicated ATP concentrations. One-fifth of the total phosphorylation reaction mixture was separated by gel electrophoresis and transferred to PVDF, autoradiographed (shown) and the proteins blotted with M3/1, a specific monoclonal antibody recognizing all four species (shown) or using antibodies specific for each individual C-terminal region (not shown). […] Right panel: purified α3(IV)NC1 domain or hexamer was phosphorylated with PKA and 0.1 μM ATP in the absence (lanes 1) or in the presence of 10 nmol of peptides representing the C-terminal region of either GPΔIII (lanes 2) or GPΔIII/IV/V (lanes 3). Where indicated the phosphorylation mixtures of purified α3(IV)NC1 domain were V8 digested and immunoprecipitated with antibodies specific for the N terminus of the human α3(IV)NC1 domain (3). Bars and numbers indicate the position and sizes (kDa) of the molecular weight markers.
(§1) Phosphorylation studies. Phosphorylation studies were essentially done as described above (see also 3 and 11). In some experiments, the substrates were in-blot renatured and then, phosphorylated for 30 min at room temperature by overlaying 100 μl of phosphorylation buffer containing 0.5 μg of RGPBP. Digestion with V8 endopeptidase and immunoprecipitation were performed as described in (3).
Regulation of the phosphorylation of the human GP antigen by alternative splicing. We produced bacterial recombinant proteins representing the primary antigen (GP) or the individual alternative products GPΔV (SEQ ID NO:46), GPΔIII (SEQ ID NO:48) and GPΔIII/IV/V (SEQ ID NO:50), and we tested their ability to be phosphorylated by PKA (FIG. 16, left panel). […] Accordingly, the differences observed in phosphorylation for the full polypeptides also existed among the individual N-terminal regions, as determined after specific V8 digestion and immunoprecipitation (not shown). […]

[2] = target: T1, GPBP; assay: in vitro GPBP autophosphorylation in the presence of GPΔIII-derived peptide; format: biochemical; conditions: about 200 ng rGPBP, 150 μM ATP, 5 nmol peptide
Method: FIG. 20. Regulation of the GPBP by the C terminal region of GPΔIII. About 200 ng of RGPBP were in vitro phosphorylated with 150 μM ATP in the absence (lane 1) or in the presence of 5 nmol of GPΔIII-derived peptide synthesized either using Boc-(lane 2) or Fmoc-(lane 3) chemistry. The reaction mixtures were subjected to SDS-PAGE, transferred to PVDF and autoradiographed to assess autophosphorylation, and subsequently blotted with anti-FLAG monoclonal antibodies (Sigma) to determine the amount of recombinant material present (Western).
In vitro phosphorylation assays-About 200 ng of rGPBP were incubated overnight at 30° C. in 25 mM P-glycerolphosphate (pH 7.0), 0.5 mM EDTA, 0.5 mM EGTA, 8 mM MgCl2, 5 mM MnCl2, 1 mM DTT and 0.132 μM γ-^32P-ATP, in the presence or absence of 0.5-1 μg of protein substrates or 10 nmoles of synthetic peptides, in a total volume of 50 μl.
as §1

[3] = target: T5, PKA; assay: in vitro phosphorylation of the synthetic peptides by PKA; format: biochemical; conditions: not shown
[4] = target: the molecule itself; assay: gel filtration HPLC and analytical centrifugation
Method: FIG. 11. rGPBP and rGPBPΔ26 form very active high molecular weight aggregates. About 300 μg of rGPBP (A) or rGPBPΔ26 (B) were subjected to gel filtration HPLC as described under Material and Methods. Vertical arrowheads and numbers respectively indicate the elution profile and molecular mass (kDa) of the molecular weight standards used. Larger aggregates eluted in the void volume (I), and the bulk of the material present in the samples eluted in the fractionation range of the column as a second peak between the 669 and 158 kDa markers (II). Fifteen microliters of the indicated minute fractions were subjected to SDS-PAGE and Coomasie blue staining. Five microliters of the same fractions were in vitro phosphorylated as described in Materials and Methods, and the reaction stopped by boiling in SDS sample buffer. The fractions were loaded onto SDS-PAGE, transferred to PVDF and autoradiographed for 1 or 2 hours using Kodak X-Omat films and blotted using anti-FLAG monoclonal antibodies (Sigma).
Northern hybridization studies Pre-made human multiple-tissue and tumor cell-line Northern Blots (CLONTECH) were probed with a cDNA containing the 78-bp exon present only in GPBP or with a cDNA representing both isoforms. […] The material was eluted from the column at 0.5 ml/min, monitored at 220 nm and minute fractions collected. […]

[5] = target: T2, GPpep1
[6] = target: T3, prokaryotic human recombinant α3(IV)NC1
[7] = target: T4, native bovine α3(IV)NC1 domain (bovine …)

Molecule	induction of GP antigen phosphorylation by PKA (22 kDa conformer of α3(IV)NC1) [1]	effect on GPBP autophosphorylation [2]	in vitro substrate of PKA [3]	binding result [4]	other results
QRAHGQDLESLFHQL [SEQ ID NO:44, synthetic peptide representing the C-terminal region of GPΔIII/IV/V]	induced the phosphorylation of a single polypeptide	–	–	–	–
QRAHGQDLDALFVKVLRSP [Fmoc-based peptide]	–	inhibited GPBP autophosphorylation	not	–	–
QRAHGQDLDALFVKVLRSP [SEQ ID NO: 43, synthetic peptide representing the C-terminal region of GPΔIII]	induced the phosphorylation of a single polypeptide	–	–	–	–
QRAHGQDLDALFVKVLRSP [Boc-based peptide]	–	positively influenced GPBP autophosphorylation	in vitro substrates of PKA	–	retention of ability to induce PKA on storage ([1]; long storage at low temperatures): loses its ability to induce PKA
B1	–	–	–	binds	–
B2	–	–	–	binds	trans-phosphorylation activity with 5 nmol GPpep1 [5]: the reduced in-solution auto- and trans-phosphorylation activities displayed by rGPBPΔ26; disruption of disulfide-based aggregates, Western blot [6]: GPBP and, to a lesser extent GPBPΔ26 disrupted disulfide-based high molecular weight aggregates characteristic of recombinant material representing human α3(IV)NC1 produced in bacteria; conformers and oligomers after DTT consumption, Western blot [7]: Essentially the same results were obtained when blotting the samples that contained GPBPΔ26

— US6881547B1, “Methods and reagents for treating autoimmune disorders” (priority 2001, dated 2005)
